In paper PMC8125067 one finds stoichiometry N data, which are given here for one molecule.

For the assay, the target named is T1, endogenous IRF3 of HEK293T cells (human (endogenous in HEK293T)), Q14653.
T1 chain: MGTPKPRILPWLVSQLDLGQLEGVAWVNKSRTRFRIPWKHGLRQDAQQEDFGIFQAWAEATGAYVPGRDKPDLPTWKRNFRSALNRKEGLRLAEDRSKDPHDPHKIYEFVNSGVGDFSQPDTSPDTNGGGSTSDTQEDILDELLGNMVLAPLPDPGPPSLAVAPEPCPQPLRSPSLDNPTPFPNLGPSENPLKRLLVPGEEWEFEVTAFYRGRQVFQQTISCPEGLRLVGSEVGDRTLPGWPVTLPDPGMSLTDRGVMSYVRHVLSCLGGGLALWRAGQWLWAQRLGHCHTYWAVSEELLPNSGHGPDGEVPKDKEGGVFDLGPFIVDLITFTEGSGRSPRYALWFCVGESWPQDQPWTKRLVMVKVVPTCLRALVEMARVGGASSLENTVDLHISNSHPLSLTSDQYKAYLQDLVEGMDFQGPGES
The assay is described as follows: native gel or EMSA; IRF3 dimer gel: lysate of HEK293T transfected 36 h with or without MDA5 and VP3; native PAGE, 25 mM Tris-HCl, 192 mM glycine, pH 8.4, 1% deoxycholate in the cathode chamber; blot with anti-IRF3. The following applies: remark: other sources report otherwise.

B1: endogenous IRF3 of HEK293T cells, Q14653 1-427 (natural protein)
chain: T1 chain
Broadly, the stoichiometry N is the number of molecules, sites or subunits per partner or assembly. With B1, the stoichiometry N came out at 2.
